According to patent publication US9051555 (SALK INSTITUTE FOR BIOLOGICAL STUDIES, dated 2015):

Molecular target: the molecule itself
Experiment: X-ray crystallography, homodimer in the asymmetric unit

B1: isopentenyl phosphate kinase (IPK) from Methanocaldococcus jannaschii (enzyme)
chain: MLTILKLGGSILSDKNVPYSIKWDNLERIAMEIKNALDYYKNQNKEIKLILVHGGGAFGHPVAKKYLKIEDGKKIFINMEKGFWEIQRAMRRFNNIIIDTLQSYDIPAVSIQPSSFVVFGDKLIFDTSAIKEMLKRNLVPVIHGDIVIDDKNGYRIISGDDIVPYLANELKADLILYATDVDGVLIDNKPIKRIDKNNIYKILNYLSGSNSIDVTGGMKYKIEMIRKNKCRGFVFNGNKANNIYKALLGEVEGTEIDFSE
notes: The crystal holds a homodimer, two molecules in the asymmetric unit; also called IPK-Mjannaschii; IPK-Mj
B1: binds.
